{
  "source": "the DeepSol protein solubility set",
  "data": [
    {"assay": "soluble on expression in E. coli; label from the status in PepcDB or PDB records", "values": [
      {"sequence": "MGSSHHHHHHSSGLVPRGSNLKIKLQKRRDEVNTCLCIGLDPDEADIKSFMQSEKQNGYQSVKKNLSNSGSSSSSSNSSSGKGELFAPQMGGQMLLAETPPKEAQEKDEFFYFFNHFCFYIINETKEYALAYKMNFAFYLPYGSLGVDVLKNVFDYLHHLNVPTILDIKMNDIGNTVKHYRKFIFDYLRSDSCTANIYMGTQMLRDICLDEECKRYYSTFVLVKTTNADSHIFQNRLSLDGKEAYVVIAEEVQKMAKQLHLEENGEFVGFVVGANCYDEIKKIRELFPDCYILAPGVGAQKGDLRKMLCNGYSKNYEKVLINVGRAITKSGSPQQAAREYHQQIKEVLAELQE", "soluble on expression in E. coli": "soluble"},
      {"sequence": "MGKYFGTDGVRGEANVELTPELAFKLGRFGGYVLSQHETERPKVFVARDTRISGEMLESALIAGLLSVGIEVYKLGVLATPGVSYLVRTEKASAGVMISASHNPALDNGIKFFGNDGFKLADDQELEIEALLDAPEDTLPRPSAEGLGTLVDYPEGLRKYEKFLVTTGTDLSGMTVALDTANGAASVSARDVFLDLNAEIAVIGEKPNGLNINDGVGSTRPEQLQELVKETGADLGLAFDGDSDRLIAVDETGEIVDGDRIMFIIGKYLSEKGLLAHNTIVTTVMSNLGFHKALDKQGINKAITAVGDRYVVEEMRSSGYNLGGEQSGHVIIMDYNTTGDGQLTAIQLAKVMKETGKSLSELAAEVTIYPQKLVNIRVENSMKERAMEVPAIANIIAKMEDEMAGNGRILVRPSGTEPLLRVMAEAPTDAEVDYYVDTIADVVRTEIGCDN", "soluble on expression in E. coli": "not soluble"},
      {"sequence": "MRNIQIALTKGRLEKHVIPLFEQIGIDCSELKNKGRKLVFQSKNTDISFILVKAVDVATYVEHGVADIGVVGKDILMENEKDIYEMLDLGVGVCKFCVASIPTYNPKSYRKKCIATKYPHITSNYFHNKGEDVEIIKIEGSVEIAPILGLADAIVDIVETGKTLQENGLIVFEEMYSISARMIVNKAALKTKKDEIFSIINMMEQEILSGK", "soluble on expression in E. coli": "not soluble"},
      {"sequence": "MGSSHHHHHHNYNIPTTENLYFQGHMNIGLLEALDQLEEEKGISKEEVIPILEKALVSAYRKNFGNSKNVEVVIDRNTGNIKVYQLLEVVEEVEDPATQISLEEAKKIDPLAEVGSIVKKELNVKNFGRIAAQTAKQVLIQRIRELEKEKQFEKYSELKGTVTTAEVIRVMGEWADIRIGKLETRLPKKEWIPGEEIKAGDLVKVYIIDVVKTTKGPKILVSRRVPEFVIGLMKLEIPEVENGIVEIKAIAREPGVRTKVAVASNDPNVDPIGACIGEGGSRIAAILKELKGEKLDVLKWSDDPKQLIANALAPATVIEVEILDKENKAARVLVPPTQLSLAIGKGGQNARLAAKLTGWKIDIKPIMNL", "soluble on expression in E. coli": "soluble"},
      {"sequence": "SGRKRFITDSYPVVKKREGPPGHNKGELAPELGEDTQSLSQEETELELLRQFDLAWQYGPCTGITRLQRWHRAEQMGLKPPVEVYQVLKTHPEDSRFQCSLWHLYPL", "soluble on expression in E. coli": "soluble"},
      {"sequence": "MESENIISAADKARILAEALPYIRRFSGSVAVIKYGGNAMTEPALKEGFARDVVLLKLVGIHPVIVHGGGPQINAMLEKVGKKGEFVQGMRVTDKEAMDIVEMVLGGHVNKEIVSMINTYGGHAVGVSGRDDHFIKAKKLLIDTPEQNGVDIGQVGTVESIDTGLVKGLIERGCIPVVAPVGVGEKGEAFNINADLVAGKLAEELNAEKLLMMTNIAGVMDKTGNLLTKLTPKRIDELIADGTLYGGMLPKIASAVEAAVNGVKATHIIDGRLPNALLLEIFTDAGIGSMILGGGEDA", "soluble on expression in E. coli": "not soluble"},
      {"sequence": "MSQVQEQHISESQLQYGNGSLMSTVPADLSQSVVDGNGNGSSEDIEATNGSGDGGGLQEQAEAQGEMEDEAYDEAALGSFVPIEKLQVNGITMADVKKLRESGLHTAEAVAYAPRKDLLEIKGISEAKADKLLNEAARLVPMGFVTAADFHMRRSELICLTTGSKNLDTLLGGGVETGSITELFGEFRTGKSQLCHTLAVTCQIPLDIGGGEGKCLYIDTEGTFRPVRLVSIAQRFGLDPDDALNNVAYARAYNADHQLRLLDAAAQMMSESRFSLIVVDSVMALYRTDFSGRGELSARQMHLAKFMRALQRLADQFGVAVVVTNQVVAQVDGGMAFNPDPKKPIGGNIMAYSSTTRLGFKKGKGCQRLCKVVDSPCLPEAECVFAIYEDGVGDPREEDE", "soluble on expression in E. coli": "soluble"},
      {"sequence": "MGSDKIHHHHHHMSTPGSTPPPSVADQPHPLPLANGHPISGATADAAAQWLTLLMSDEMTDSDYQCWQQWRAAHPDHERAWQHIEAVTARFRELPSTAAYKSLSPLTNPVSAGKPGSPGRRKAMGTLLWLGTAGVGSMLVSRTQIWQQTVADYRTGTGEQRAIYLADGTHIMLNTYSAIDVAFDAQHRTIRLITGDILITTHPVHTPISDPRPFIVETAEGRIRALGTRFTVSQRKGRTHVAVLEHAVEVTPAAAPDRQYILPAGQQLSFTRHTLNNATTLDKQTTGWTQGQIIADNIRLGDFITDLGRYRTGLLRCDPAVAELRLSGVFPLDDTDRILETLPSVLPVRVRLRTRYWVIVEAAS", "soluble on expression in E. coli": "not soluble"},
      {"sequence": "MVARSPKGCQEKPVASGKSGIMPSSGRGFRALAPRTLAPFQGAFGGGPSSPGGPHEGGPTPWPTRWRSGSSASGARAGVTPRTLRRIFLEEVERELGPEKARLLAKQTLPFEEIFVVEGRKQRPFSKGLLTRSLEDAGFSLREAHELAKAVERRLRLEGVRRIPAKRLEKVVAEEARRLYGPEAGERYRARLLYAGELFVEEAPGAPRVPFSKGILAQSLMAIGLSPDRAFRLAREMEVALHREGVQVIRRDELRRRVHQALLREAGEEMARRYLILRSLRKQPRPVHILIGGVTGVGKSVLASALAYRLGITHIVPSDAVREVFRVSLSKDLLPTLHLSTFEAWRALSPGLGLEGESYEVQVMRGFLDQVAKVAVGLKAIQERSALEGTSIVLEGVHVVPRFLQHPYQDRVFTIPMLVAVQDENLHRDRFLLRDRETGHARPKERYLQHFEEIRLIQNHLLRWAREEGIPVIPGEDLDEGIEKALEVLVAYLEAQGQRLEEAHA", "soluble on expression in E. coli": "soluble"},
      {"sequence": "MGSDKIHHHHHHMLSVEKLACTHGDSHYLFDEVTFSLNPGERILISGYSGCGKSTLALLLSGLKESGKGQVLLNGSLIEPSDVGFLFQNPDLQFCMDTVAHELYFILENLQIEPEQMQDRSEFVLAQVGLKGFQNRLIYTLSQGEKQRLALATIFLKSPKLIILDEAFANLDQESASQLLQLVLNYQANNQSMLIVIDHLITYYQDIMDHYFWLEKRLTRVNFDYMLNRLNVFELEKKSHNTGDKLLSIKDFQVKLSKNKFISYLDFDLASGERLCLDGPSGVGKSSLFMGLLGLYRTKGKKQFTHRKQIPISFLFQNPLDQFIFSTVYDEIFQVCKDSNKARDILETINLWDKKQFSPFQLSQGQQRRLAIGSILASDSKLLLLDEPTYGQDAYHANMITTLLLSYCHKNHCGVIFTSHDPHLKECFATRFLEVSSCSI", "soluble on expression in E. coli": "not soluble"},
      {"sequence": "MTDFQKQFFARLNIEEKQKVSFEDLSNIMYAMAQTVPFENLNVLEKNFKEISQENLKEKILVNNRGGLCYELNPTMYYFLKDAGFDVYLVSGTVYNAANSIWAVDSGHIATILKHHNELYLIEVGFGSYLPLAPVPFSGEVVQSVTGDYRIRKEMTEKGNYMLEMRKNDEFLDQSSTDDWTLGYAFYIEEVDEKKQMQHKKLLLNTMAHHLTKYLLL", "soluble on expression in E. coli": "not soluble"},
      {"sequence": "SFYSGLLTEGGRKETDMREAASLRQQRRMKQAVQFIHKDSADLLPLDGLKKLGSSKDMQPHNILQRRLMETNLSKLRSGPRVPWASKTNKLNQAKSEGLKKSEEDDMILVSCQCAGKDVKALVDTGCLYNLISLACVDRLGLKEHVKSHKHEGEKLSLPRHLKVVGQIEHLVITLGSLRLDCPAAVVDDNEKNLSLGLQTLRSLKCIINLDKHRLIMGKTDKEEIPFVETVSLNEDNTSEA", "soluble on expression in E. coli": "soluble"},
      {"sequence": "MKGMFTPGNGPVQISAEAIKKRVEELGGEIARDYQGKTPHLICVLNGAFIFMADLVRAIPLPLTMDFIAISSYGNAFKSSGEVELLKDLRLPIHGRDVIVVEDIVDTGLTLSYLLDYLEARKPASVRVAALLSKPSRRQVEVPIHYLGFEIEDAYVYGYGLDRAQFDRNLPFITSIRPEEE", "soluble on expression in E. coli": "soluble"},
      {"sequence": "MEITKTDLFYNISEQQQAEMMHCFKTYTRTYKSGEVICFYDDNNIGVGIIESGSARVIHFLPNGTQTILEQLCRGDLFGQLFYHYACPESISLEATCDCVVRFIDYEHIIKRCSKACPHHSQLVNNILVIISDKTRSICEHLEVLSGRTIRDRLNNYFEILSSKSGSNTFKLPFTMTALADYLSVDRSAMSRELKKMKDEGLIQTNKGIVTINR", "soluble on expression in E. coli": "not soluble"},
      {"sequence": "MSDKFNQFINRVLSHEGGYANHPKDPGGETNWGITKRTAQANGYNGSMRAMTREQAISIYRKAFWERYRADQMPEAVAFQFFDACVNHGYGNAARMLQRAAGVPDDGVIGAVSLKAINSLPENDLLLRFNAERLVFYTKLGTFTSFGKGWVRRVAQNLIHASADNTD", "soluble on expression in E. coli": "soluble"},
      {"sequence": "MKTVDSELFDSGPFKKNFAFGNADHSTASPFEISTTPIEVNESRAHKTIEISNRARLESQNDGCLSPSSLKSVLDEIQTEPRCKSPQHIDLHTFRDAVDVNYQRMAITGEELSGVPLEDLKTASGHLIEALHLRSKYMERIGNQFPSTTRNFLSGHYPANLPKHRVKNTETTVQTSFNPPDPPKDHWGKNDPLPKYEKIYHLRRNRGVTEICNDDGSIDQQFKNVNVTKEEFLNDTEKLTAMIVDGPLKSFCFRRLSYLENKFQLHVLLNELRELHEQKGVSHRDFYNIRKVDTHIHAASSMNQKHLLRFIKKKIKTEADTVVLNNNGTKVTMKEVFKKMGIDAYDLSVDMLDVHADRNTFHRFDKFNTKYNPVGESTLREIFIKTDNYVGGKYFADLLKEVLSDLEDSKYQHAEPRLSIYGRSKNEWDNLAKWALTHDVWSPNARWLVQIPRLYDVYRAKNMVKNFDDMLDNLFTPLFEVTNDPSSHPELHLFLQQISGIDSVDDESKHEFVNFDRSTPCPPEYTDLENPPYNYYLFYMYRNICALNAFRRARGLNTFALRPHCGEAGHVSHLLTGYLTSESIAHGILLRKVPVLQYLYYLTQIGIAMSPLSNNSLFISYQRNPLPEYLQKGLNVSLSTDDPLQFHYTKEALMEEFSIAAQVWKLSSCDMCELARNSVMQSGFEDKVKIHWLGPNYKEEGVLGNDIHRTNVPDIRVSFRHEALVDELYNLFRVQNTLKQ", "soluble on expression in E. coli": "not soluble"},
      {"sequence": "MGHHHHHHSHMRSTGSAPSCSGESARAHRRRAGAMSIRSSRTKHSTAQKGAHRRRVSLAGFFNLIYKRQDLGLDFLREMSEPLCTSRPVLLPLNLKNIAPGRCISLTPFGHTDNLGFQCETCTDPNLNKSIPPKLEDPAFSKNELCSVTLTFYQQAEQVIQHKQFYLSLLNLSMDAVRNSLTQPGLLYCYLVTKAFMLEGFPIFFEETNGMLGLYLVFRRDLLHLHESYLRLLIDNLGNYDISVDSVGRSYIIKLCPVGNVSRIPTIPADNVCLAVNNLDYGDDVKASWIECFNIVSRLSQQ", "soluble on expression in E. coli": "not soluble"},
      {"sequence": "MKKILVGIPNYNNAAYIVDTIESVLKQSYSGVDVVVFDNASTDDSVEIIENTFLNNPNVLLKKSASNVGPTMNHNRCLEYAIDNEYDYLKVLSSDDVLLPNIIQEQFELLESEPRGAFATCNMIVTDDKLTKIKDHDFLGSNTDGNAVIKKCASHSANYIGGPSNGLLRVSCIGATRFSPEYKWLSDLKFYCDLLANRPFINTGTNGFFYRRHDNTDSSHVSKIKNLQRKESIRFSGEYGGNFLTKIKIYLRDIKSRLLLEHHHHHH", "soluble on expression in E. coli": "not soluble"},
      {"sequence": "VTPELDEREQEVIVRSAINQFEGFIKLNKKIPPEVLTSLNGIDEAARLADTIAAHMPLKLVDKQQVLEIIDVTERLEFLMGQMESEIDLLQVEKRIRGRVKKQMEKSQREYYLNEQMKAIQKELGEMEDAPDEFETLQKKIDESKMPQEAREKTEQELQKLKMMSPMSAEATVVRSYIDWMVSVPWTKRSKVKKNLAKAEEILNEDHYGLERVKERILEYLAVQNRINKLKGPILCLVGPPGVGKTSLGRSIASATGRKYVRMALGGVRDEAEIRGHRRTYIGSLPGKLIQKMSKVGVKNPLFLLDEIDKMSSDMRGDPASALLEVLDPEQNNSFNDHYLEVDYDLSDVMFVATSNSMNIPGPLLDRMEVIRL", "soluble on expression in E. coli": "not soluble"}
    ]}
  ]
}
